The values below come from article PMC6258048 (Biochemical and biophysical research communications, 2014).

The chains are these.
B1: Tcf3 (Transcription factor 3) DNA binding B-HLH domain (domain or fragment)
chain: MGHMVHRPWIQDEVLSLEEKDLRDRERRMANNARERVRVRDINEAFRELGRMCQLHLKSDKAQTKLLILQQAVQVILGLEQQVRERNLNPKAACGGRTRIVSAHNSENEL

The data set “CD thermal denaturation” deals with the molecule itself. The data set is described as follows: CD thermal denaturation.
Data set [1] concerns the target B1. The data set is described as follows: native gel or EMSA. A general note: In EMSA bound probe runs differently from free probe, usually more slowly.
In data set [2] the target is T1, Tcf4 (Transcription factor 4) DNA binding B-HLH domain.
T1 chain: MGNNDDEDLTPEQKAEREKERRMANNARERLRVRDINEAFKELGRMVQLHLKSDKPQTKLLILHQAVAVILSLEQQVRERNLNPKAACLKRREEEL
The data set is described as follows: native gel or EMSA.

The target in data set [3] is Tcf12 (Transcription factor 12) DNA binding B-HLH domain. The data set is described as follows: native gel or EMSA.

Regarding B1, the binding result in the data set “CD thermal denaturation” is recorded as “binds”.

B2: Ascl1 (Achaete-scute homolog 1) DNA binding B-HLH domain (domain or fragment)
chain: MASGFGYSLPQQQPAAVARRNERERNRVKLVNLGFATLREHVPNGAANKKMSKVETLRSAVEYIRALQQLLDEHDAVSAAFQAGVLSPEL
B2: the binding result in data set [1], in data set [2] and in data set [3] was “binds” throughout.
